# From the supplement of paper PMC9170038
# System: MS2 coat protein
# Assay: apparent KD of MS2 coat protein; designed switch direction (-1 OFF switch, 1 ON switch): -1; higher = weaker reporter binding
# Outline: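 Each step of the titration lasted 0.8–1.5 h at the lowest concentration and 10–20 min at the highest. The protein, SNAP-549-labelled MS2 coat protein, went from 0.7 or 1.5 nM doubling to 3 µM over RNA switches transcribed on Illumina chips by stalled E. coli RNA polymerase. Normalised cluster fluorescence was curve-fitted, and the per-design median over clusters is given as apparent KD.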
# [1] = Eterna round: R95, input ligand: microRNA oligo, concentration not stated
# [2] = input ligand: microRNA oligo, concentration not stated
Sequence,apparent KD of MS2 coat protein (input ligand: FMN 200 uM) [µM],apparent KD of MS2 coat protein (input ligand: none) [µM],apparent KD of MS2 coat protein [1] [µM],apparent KD of MS2 coat protein [2] [µM]
"UAAUGGACAGGAUAUACAUGAGGAUCACCCAUGUCGGCCGGUCCUGUUCUAAGAGCGAGUAGAAGGGUCACGUU [Eternabot (L1) Solution 4] (Eterna round: R97, puzzle: Exclusion 3)",0.0116,0.0119,,
CUAUUGUGAGGAUAUCAGUAGUAGAACAAUAGUACUACUACUGAGAAGGCACAUGAGGAUCACCCAUGUUCCUC [Fiskers Ex 4 Super stable 44 mod 7] (puzzle: Exclusion 4),,,0.0573,
"UUCUGCACGCUGCGGUCCUACAUGAGGAUCACCCAUGUGGUCUGGUGGCGUGGGUCGCCGGACUUGGCUCGUCUUGA [salish99_S_TOV1_R5_044] (Eterna round: R97, puzzle: Sensor, turn-off variant 1)",0.0182,0.0191,,
"AUGAUGUUAGGAUAUCAUUGCCGGGUUUGAAAACACGGGAUUGAGAAGGAACAUGAGGAUCACCCAUGUGCCUC [EX4 C.9] (Eterna round: R97, puzzle: Exclusion 4)",0.118,0.0275,,
GGUGGACAUGAGGAUCACCCAUGUGAGGAUAUCGGCCGGUUCGUGGUGGCUGGCGUCUCGAGAAGGCACAUAGU [Exclusion 1 V69] (puzzle: Exclusion 1),,,0.114,
"CCCGGGCUUGUGAGGAUAUUGUGUGUGAAAGCGCGCGAGAAGGCACAUGAGGAUCACCCAUGUAAGGGCCCGGG [-34.6, -32.6 kcal, A 23%, 6bis-0] (Eterna round: R97, puzzle: Brourd's mod of Exclusion 4)",0.0193,0.0859,,
"AAGAAAGGUGACAUGGGCGACAUGAGGAUCACCCAUGUUACAAGCUUGUUGCUCGUCUUAUAAUUAACCCAUGUCAC [LRO Sensor-off var1-21 mod of Stov1-13-A1 by Brourd] (Eterna round: R97, puzzle: Sensor, turn-off variant 1)",0.0161,0.018,,
"UAUAACAGAGGAUAUGCGAAUAAAUAAAACUUUUUUUUUUAACAUGAGGAUCACCCAUGUAGAAGGCUGAUAUU [Ex2 #22] (Eterna round: R97, puzzle: Exclusion 2)",0.0285,0.0516,,
"CGGGCCGGCCUUCCGGCCGGCCCGACAUGAGGAUCACCCAUGUAGGAUAUCCCGGCUGCCGGCCGGGAGAAGGGCGUGCGCUUU [-47.6, -45.1 kcal, 14% A] (Eterna round: R96, puzzle: Exclusion NG 3)",0.0365,0.0365,,0.0208
"UGAGUGCUGCGAGGAUAUACAUGAGGAUCACCCAUGUUUACCUGUGAGGCUUUGCCUCACAGGUUGUAGAAGGCGCAGUACUCU [JL ENG2 1.15] (Eterna round: R96, puzzle: Exclusion NG 2)",0.0102,0.0124,,0.00911
"CGGUGACAUGAGGAUCACCCAUGUCAGGAUAUCCAGGUCGACAAUGAGCUGUACGAUUGGAGAAGGGAUACGGG [EX1 C.9] (Eterna round: R97, puzzle: Exclusion 1)",0.0206,0.0237,,
"GGGCUCGGUCUUCCGGCUGGGUCCACAUGAGGAUCACCCAUGUAGGAUAUCCCGGCUGCCGGCCGGGAGAAGGGCGUGUGUUUC [-39.8, -36.9 kcal, 14% A] (Eterna round: R96, puzzle: Exclusion NG 3)",0.0226,0.0215,,0.0133
